Results from the nanobody polyreactivity screen of Harvey et al. (2022).

Assay: yeast display, Sf9 membrane polyspecificity reagent, FACS + sequencing; frameworks hold sequencing errors
Method in brief: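 Galactose induction of a Saccharomyces cerevisiae BJ5465 synthetic nanobody display library ran 36–48 hours. The cells were then stained for 1 hour at 4 °C with 10% biotinylated, detergent-solubilized Sf9 membrane reagent, pulled down on streptavidin microbeads and FACS-sorted into low and high (top ~1%) gates on expression and reagent-binding fluorescence. Labels for polyreactivity follow the gate of origin.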

Sequence	polyreactivity (PSR sort gate)
QVQLVESGGGLVQAGGSLRLSCAGYGLTFEYYTMGWYRQAPGKGRELVAAITSSGGSTYYADSVKGRFTISRDNSKNTFYLQMISLKPEDTAVYYCNAYLTYEFPSYDYWGQGTQVTVSS	low polyreactivity
QVQLVESGGGLVQAGGSLRLSCAASGFTFKYYDMGWYRQAPGKERELVAAIDTSGGNTYYADSVKGRFTISRDYAKNTVYLQMNSLKPEDTAVYYCAATVPYYHDDYWGQGTQVTVSS	low polyreactivity
QVQLVESGGGLVQAGGSLRLSCAASGFTFTYYAMGWYRQAPGKERELVAVITRSGNTYYADSVKGRFTISRDNAKNTVYLQMNSLKPEDTAVYYCATVGQRLHLGYWGQGTQVTVSS	high polyreactivity
QVQLVESGGGLVQAGGSLRLSCAASGRIFHYNAMGWYRQAPGKEREFVASISGSGGRTYYADSVKGRFTISRDNAKNTVYLQMNSLKPEDTAVYYCAASYYGHRYWGQGTQVTVSS	low polyreactivity
QVQLVESGGGLVQAGGSLRLSCAASGRTFNDYAMGWYRQATGKERELVAGITWRGGSTYYADSVKGRFTISRDNAKNTVYLQMNSLKPEDTAVYYCNAVPRRGYSRRDYWGQGTQVTVSS	high polyreactivity
QVQLVESGGGLVQAGGSLRLSCAASGRIFYAYAMGGYRQAPGKERELVASISGGGSTDYADSVKGRFTISRDNAMNTVYLQMNSLKPEDTAVYDCAAKRISYYSYNFDYWGEGTQVTVSS	high polyreactivity
EVQLVESGGGLVQAGGSLRISCAASGRIFNFYAMGWYRQAPGKEREFVASIRSNVGSTYYADSVKGRFTISRDNAKNTVYLQMNSLKPEDTAVYYCNARYYWYRGYDYWGQGTQVTVSS	high polyreactivity
QVQLVESGGGLVQAGGSLRLSCAASGLILTWNAMGWYRQAPGKERELVAAISRSDGITYYADSVKGRFTISRDTAKNTVYIQMNSLKPEDTAVYYCAKDGVPKGRGGAYYEYDYWGQGTQVTVSS	low polyreactivity
QVQLVESGGGLVQAGGSLRLSCAASGRTLTFYAMGWYRQAPVKERELVAAISRRAGSTYYADSVKGRFTISRDTAKNTVYLQMNSLKPEDTAVYYCAREPYSASHRYCLYRGYDYWGQGTQVTVSS	low polyreactivity
QVQLVESGGGLVQAGGSLRLSCAASGSTFIVYAMGWYRQAPGKERELVAAISLDGGSTYYADSVKGRFTISRDNAKNTVYLQMNSLKPEDSAVYYCNADYYANSITYDSWGQGSQVTVSS	low polyreactivity
QVQLVESGGGLVQAGGSLRLSCAASGRTFAKYGMGWYIQAPGKERELVAAIDYSGGSTYYADSVKGRFTISRDNAKNTVYLQMNSLKPEDTAVYYCAADYFWLYYSEYGYWGQGTQVTVSS	low polyreactivity
QVQLVESGGGLVEAGGRLRLSCAAYGRIFYYNGMGCYRQAPGKERELVAAITSGGSTNYADSEKGRFTISRDNAKNNVYLQMKSVKPEDTAVSYCAADYYYYVAGVHFDYWGQGTQVTVSS	low polyreactivity
QVQLVESGGGLVQAGGRLRLSCAASGSTFIYYAMGWYRQAPGKERELVAAITGRGTRTYYADSVKGRFTISRDNAKNTVYLQMNSLKPEDTAVYYCNTLQTYLYDYWGQGTQVTVSS	high polyreactivity
QVQLVESGGGLVQAGGSLRLSCAASGRTFRNNAMGWYRQAPGKERELVAAISRTGGRTYYADSVKGRFTISRDNAKNTVYLQMNSLKPEDTAVYYCNAAYLVREYDYWGQGTQVTVSS	high polyreactivity
QVQLVESGGGLVQAGGSLRLSCAASGSIFGGYAMGWYRQAPGKERELVAAISRSGGRTYYADSVKGRFTISRDNAKNTVYLQMNSLKPEDTAVYYCNRVTGYDSGDGYWGQGTQVTVSS	high polyreactivity
QVQLVESGGGLVQAGGSLRLSCAASGITFPRYAMGWYRQAPGKERELVATITSRGGSTYYADSVKGRFTISRDNAKNTVYLQMNSLKPEDTAVYYCNAQYLLFHGYRYDYWGQCTQVTVSS	high polyreactivity
QVQLVESGGGLVQAGGSLRLSCAASGRTFRGNDMGWYRQAPGKEWELVATITRNGGSTRYADSVKGRFTISRDNAKNTVYLQMNSLKPEDTAVYYCNARSRYFGYDYWGQGTQVTVSS	high polyreactivity
QVQLVESGGGLVQAGGSLRLSCAASGFTFNPYAMGWYRQAPGKERELVAAITSGGSTNYADSVKGRFTISRDNAKNTVYLQMNSLKPEDTAVYYCAADSRGYGDDSWGQGTKVTVSS	low polyreactivity
QVQLVESGGGLVQAGGSLRLSCAASGSIFRRNAMGWYRQAPGKERELVAAISSIGSSTYYADSVKGRFTISRDNAKNTVYLQMNSLKPEDTAVYYCAALYVQGTHTYGYWGQGTQVTVSS	high polyreactivity
QVQLVESGGGLVQAGGSLRLSCAASGRTFTYYAMGWYIHAPGKERELVAAITWSGGSTYYADSVKGRFTISRDNAKNSVYLHMNSLKPEDTAVYYCNKTYRQGWSWVSYRSYGSGEGYWGQGTQVTVSS	high polyreactivity

Sequence	polyreactivity (PSR sort gate)
QVQLVESGGCLVQAGGSLRLSCAASGFIISSYVMGWYSQEPGKERELVAAITSGTSTYYADSVKGRFTFSRDNAKNTVYLQMNSLKPEDTAVYYCTADSYHTYYYWYDYWGQGTQVTVSS	low polyreactivity
QVQLVESGGGLVQAGGSLRLSCAASGITFGANALGWYRQAPGKERELVAEITWSGGDTYYADSVKGRFTISRDNAKNTVYLQMNSLKPEDTAVYYCNALQPGLGSPLGEYDYWGQGTQVTVSS	low polyreactivity
QVQLVESGGGLVQAGGSLRLSCAASGSTFYYNAMGWYRQAPGKEREFVAAINWRGGSTYYADSVKGRFTISRDNAKNTVYLQMNSLTPEDTAVYYCAAEEPSTYYYVRSGYDYHFWEMYSWGQGTQVTVSS	low polyreactivity
QDQLVESGGGLVQAGGSLRLSCAASGRTFWRNAMGWSRQAPGKEREMVAAINSGGRTYYADAVKGRFTISRDNAKNTVYLQMNSLKPEDTAVYYCAVYVHRFLDGRVRSYRGDYWGQGTQVTVSS	high polyreactivity
QVQLVESGGGLVQAGGSLRLSCAASGSIFAYNAMGWYRQAPGKDREFVAAISQSGGRTYYAHSVKGRFTISRDNAKNTVYLQMNILKPEDTAVYYCATDGIRLTRHRDYDYWGQGTQVTVSS	low polyreactivity
QVQLVESGGGLVQAGGSLRLSCAASGFTYFYAMGWYRQAPGKERELVATITINGGRTYYADSVKGRFTISRDNAKNTVYLQMNSLKPEDTAVYYCAAKSWYSYGDWGYYSWGQGTQVTVSS	high polyreactivity
QVQLVESGGGLVQAGGSLRLSCAASGRTFHRYAMGWYRQAPGKERELVATISRGGSTNYADSVKGRFTISRDNAKNTVYLQMHSLKPEDTAVYYCAAESWIYWYPDTGDYWGQGTQVTLSS	high polyreactivity
QVQLVESGGGLVQAGGSLRLSCAASGRIFPRYAMGWYRQAPGKERELVASISGTGSRTYYADSVKGRFTISRDNAKNTVYLQMNSLKPEDTAVYYCAAYSFRKLDYYWGQGTQVTVSS	high polyreactivity
QVQLVESGGGLVQAGGSLRLSCAASGIIFYEFTMGWYRQAPGKERELVATISWSGGSTYYADSVKGRFTISRDNAKNTVYLQMNSLQPEDTAVYYCAADFADVQSISPDSAHEYDYWGQGTQVTVSS	low polyreactivity
QVQLVESGGGIVQAGGSLRLSCAASGSTFGSYAMGWYRQAPGKVRELVAAIYRAGSTYADSVKGRFTISRDNAKYTVYFQMNSLKPEDTAVYYCAKRDNALYYGYDYWRQGTQVTVSS	low polyreactivity
QVQLVESGGGLVQAGGSLRLSCAASGSTFTAYAMGWYRQAPGKERELVADISDSGGSTYYADSVKGRFTISRDNAKNTVYLQMNSLKPEDTAVYYCAVDVRAYVVSKFDSWGQGTQVTVSS	low polyreactivity
QVQLVESGGGLVQAGGSLRLSCAASGSSFSSYAMGRYRQAPAKERELVASNNIGGSTNYADSVKGRFTISRDNAKITVYLHMNSLKPEDTAVYSCNAVGYNVGGEGDYWGQGTQVTVSS	high polyreactivity
QVQLVESGGGLVQAGGSLRLSCGASGSTFYYYTMGWYRQAPGKERELVAAISFIGGSTYYADSVKGRFTISRDNAKNTVYLQMNSLKPEDTAVYYCAAEFYGLVSLSFSYDYWGQGTQVTVSS	low polyreactivity
QVQLVESGGGLVQAGGSLRLSCAASGRIFPPYDMGWYRQAPGKETELVAAISYRGGSTYYADSVKGRFTISRDNAKNTVYLQMNSLKPEVTAVYYCNVGSRGGWDASDYDYWGQCTQVTVSS	high polyreactivity
QVQLVESGGGLVQAGGSLRLSCAASGFIFSRYAMGWYRQAPGKERELVAAISWSGASTYYADSVKGRFTISRDNAKNTVYLQMNSLKPEYTAVYYCNAVVTYHYSVSSVGSRYDYWGQGTQVTVSS	high polyreactivity
QVQLVESGGGLVQAGGSLRLSCAASGRIFPVNAMGWYRQAPGKERELVARISWRGGTYYADSVKGRFTISRDNAKNTVYLQMNSLKPEDTAVYYCAATLPSTSYWYHYGYWGQGTQVTVSS	high polyreactivity
QVQLVVSGGGLVQAGGSLRLSCAASGFTFRYYAMGWYRQAPGKEREMVAAITRGAGSTYYADSVKGRFTITRDNAKNTVYLQMNSLKPEDTAVYYCAAEFFQYYVATPFDPYNYWGQGTQVTVSS	low polyreactivity
QVQLVESGRGLVQAGGSLRLSCAASGRTFWIYAMGWYRQAPGKERELVAAISRGGSTYADSVKGRFTISRDNAKNTVYLQMNSLKPEDTAVYYCAASTPQYQYYYWGQGTQVTVSS	high polyreactivity
QVQLVESGGGLVQAGGSLRLSCAASGSTIGLNARGWYRQAPGKERELVAAITRSDITNYADSVKGRFTISRDNAKNTVYLQMNRLKPEDTEVYYCAAESPLYWVDDFESGWRYYYSGQGTQVTVSS	low polyreactivity
QVQLVESGGGLVQAGGSLRLSCAASGYSFQKYGMGWYRQAPGKERELVAAITRSSGNTYYADSVKGRFTISRDTAKNTVYLQMNSLKPEDTAVYDCAAFYWGGVKYNYWGQGTQVTVSS	high polyreactivity
